Laboratory results as given in article PMC3618350 (G3: Genes|Genomes|Genetics, 2013).
Read-outs that look alike come from different tables or passages of the source. Each block holds one binder with its values, some of them ahead of it.

Key:
Test in all cases: two-hybrid
Rev7 [1] = target: T1, Rev7 (S. cerevisiae, UniProt P38927 1-245)
T1 sequence (looked up): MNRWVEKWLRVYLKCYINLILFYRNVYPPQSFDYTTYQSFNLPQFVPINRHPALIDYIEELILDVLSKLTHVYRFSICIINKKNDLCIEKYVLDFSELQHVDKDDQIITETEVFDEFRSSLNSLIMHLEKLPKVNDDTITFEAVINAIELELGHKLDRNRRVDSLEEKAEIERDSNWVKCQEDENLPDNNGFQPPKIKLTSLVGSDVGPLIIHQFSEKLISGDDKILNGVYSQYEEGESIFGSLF

Rev7 [2] = target: T1, Rev7; remark: listed apart in the source
Rev1 = target: T2, Rev1 (S. cerevisiae, UniProt P12689 1-985)
T2 sequence (looked up): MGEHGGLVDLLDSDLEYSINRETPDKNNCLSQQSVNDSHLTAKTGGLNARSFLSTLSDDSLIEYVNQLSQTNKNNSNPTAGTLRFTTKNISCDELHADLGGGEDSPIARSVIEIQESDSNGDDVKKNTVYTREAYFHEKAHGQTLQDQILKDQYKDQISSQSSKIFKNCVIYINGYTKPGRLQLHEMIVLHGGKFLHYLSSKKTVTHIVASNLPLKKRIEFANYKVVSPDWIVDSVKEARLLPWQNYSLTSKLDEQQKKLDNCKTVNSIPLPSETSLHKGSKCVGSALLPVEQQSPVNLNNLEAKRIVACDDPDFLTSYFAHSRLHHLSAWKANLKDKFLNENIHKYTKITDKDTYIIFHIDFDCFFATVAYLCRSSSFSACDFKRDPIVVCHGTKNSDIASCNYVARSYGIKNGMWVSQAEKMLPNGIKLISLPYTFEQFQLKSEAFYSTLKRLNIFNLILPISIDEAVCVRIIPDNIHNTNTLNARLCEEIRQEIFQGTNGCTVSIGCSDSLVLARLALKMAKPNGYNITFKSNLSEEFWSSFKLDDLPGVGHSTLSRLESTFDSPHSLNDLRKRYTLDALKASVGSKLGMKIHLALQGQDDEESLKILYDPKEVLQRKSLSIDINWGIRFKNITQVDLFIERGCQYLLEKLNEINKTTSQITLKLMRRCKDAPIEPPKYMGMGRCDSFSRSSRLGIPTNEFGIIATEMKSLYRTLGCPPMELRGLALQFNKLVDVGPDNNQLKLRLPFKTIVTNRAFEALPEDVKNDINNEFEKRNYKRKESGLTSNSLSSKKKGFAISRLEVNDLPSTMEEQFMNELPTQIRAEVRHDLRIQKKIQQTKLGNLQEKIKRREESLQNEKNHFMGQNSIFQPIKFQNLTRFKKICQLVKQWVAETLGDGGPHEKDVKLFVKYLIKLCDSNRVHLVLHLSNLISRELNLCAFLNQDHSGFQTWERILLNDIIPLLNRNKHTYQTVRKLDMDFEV

B2: Rad54 (natural protein, S. cerevisiae, UniProt P32863 1-898, looked up)
chain: MARRRLPDRPPNGIGAGERPRLVPRPINVQDSVNRLTKPFRVPYKNTHIPPAAGRIATGSDNIVGGRSLRKRSATVCYSGLDINADEAEYNSQDISFSQLTKRRKDALSAQRLAKDPTRLSHIQYTLRRSFTVPIKGYVQRHSLPLTLGMKKKITPEPRPLHDPTDEFAIVLYDPSVDGEMIVHDTSMDNKEEESKKMIKSTQEKDNINKEKNSQEERPTQRIGRHPALMTNGVRNKPLRELLGDSENSAENKKKFASVPVVIDPKLAKILRPHQVEGVRFLYRCVTGLVMKDYLEAEAFNTSSEDPLKSDEKALTESQKTEQNNRGAYGCIMADEMGLGKTLQCIALMWTLLRQGPQGKRLIDKCIIVCPSSLVNNWANELIKWLGPNTLTPLAVDGKKSSMGGGNTTVSQAIHAWAQAQGRNIVKPVLIISYETLRRNVDQLKNCNVGLMLADEGHRLKNGDSLTFTALDSISCPRRVILSGTPIQNDLSEYFALLSFSNPGLLGSRAEFRKNFENPILRGRDADATDKEITKGEAQLQKLSTIVSKFIIRRTNDILAKYLPCKYEHVIFVNLKPLQNELYNKLIKSREVKKVVKGVGGSQPLRAIGILKKLCNHPNLLNFEDEFDDEDDLELPDDYNMPGSKARDVQTKYSAKFSILERFLHKIKTESDDKIVLISNYTQTLDLIEKMCRYKHYSAVRLDGTMSINKRQKLVDRFNDPEGQEFIFLLSSKAGGCGINLIGANRLILMDPDWNPAADQQALARVWRDGQKKDCFIYRFISTGTIEEKIFQRQSMKMSLSSCVVDAKEDVERLFSSDNLRQLFQKNENTICETHETYHCKRCNAQGKQLKRAPAMLYGDATTWNHLNHDALEKTNDHLLKNEHHYNDISFAFQYISH
fold change in reporter activity over the highest negative control (Rev7 [1]): 1.49 fold

B5: Mei4 (natural protein, S. cerevisiae, UniProt P29467 1-408, looked up)
chain: MSRGKLEDMEQKETSEVDWIICFALIQSRNPTLWKRALSRKKGDVEDVGALKSEKNLKINPRENSKHIYKWVAPFENGFLNNKSLFAHLEPIYNFLCQNKYKSFEDAVGLKELQSFSKDVSTADINNWFLPRYKILLKILSLKTKEIDFRGLSQVFQTLQILLVSHYSHRIDSDSSFKRTLIDVHVFNFIAKFLFNRILLKKNQNDPKWLQNFYDQGDGKHLCDKVDYKRLCSLHFTLIYSIINIQLIKIKTNQTFEPQILKYVSVLKLIEHILIIIESLIHVLIRFVSKHKLICINRKKAYCRVYLERELSLKKTYLKNFYSVISGVPEKELGGLLKILKIVILSLLETFESIEWQHLKPFLEKFPAHEISLQKKRKYIQAALLITAERNLIARFRLSRWFNETENI
fold change in reporter activity over the highest negative control (Rev1): 3.01 fold

More lines, now with the values ahead:

fold change in reporter activity over the highest negative control (Rev7 [1]): 2 fold
B1: Rad57 (natural protein, S. cerevisiae, UniProt P25301 1-460, looked up)
chain: MPRALSIKFDNTYMDLYDELPESKLLYDEEFSYLLDAVRQNGVCVVDFLTLTPKELARLIQRSINEVFRFQQLLVHEYNEKYLEICEKNSISPDNGPECFTTADVAMDELLGGGIFTHGITEIFGESSTGKSQLLMQLALSVQLSEPAGGLGGKCVYITTEGDLPTQRLESMLSSRPAYEKLGITQSNIFTVSCNDLINQEHIINVQLPILLERSKGSIKLVIIDSISHHLRVELQNKSFRESQENKNYLDRMAEKLQILAHDYSLSVVVANQVGDKPLANSPVAHRTYVTDYDYQLGWLVGWKNSTILYRQMNSLLGASSNNDEILSDDEDYMLIERVMSTVNDRNYDFFSKKKPPIIENKTVERNSSSPISRQSKKRKFDYRVPNLGLTWSNHVSTRILLQKSFKASTIIQRGEAHLYKGGDSASFWQVKRTMKVVYSTFAKPGQIAYQITKRGIETA

fold change in reporter activity over the highest negative control (Rev7 [2]): 6.27 fold
B3: Rec114 (natural protein, S. cerevisiae, UniProt P32841 1-428, looked up)
chain: MYEYCSVVIKKYSKYTIPSFAPNGFQSMLEPPQIDKWQHLSANCTLQFRVLLMDSRQILINVVLNNSTLLENIRLPLGDNQDLIQFSCKSPIISCKYISEEFGPRMLRRFQMNLPNDVEFNRTVVSLKNLNFVLRTARTSIAQSTITSQVQGNNNGTKVCFTEGPKVSSYTNPNTQFQTQNMIMDFSQRYQEESERESNNRSNITLPHDSIQIAQQIWPNTDLNVVQSSQDLNTPMATQTVLGRPESLIVQPLEVSQSPPNTTNCLPNAENKKKKVDTTSDFTSRKEIALCKTGLLETIHIPKERESQMQSVTGLDATPTIIWSPGKDNTAKKNTSNKKNIDDKLTNPQKSGNTHTPDRNKEVLPNGTLNETRKEASPSEGLTIRVKNVNRNASRKISKRLIKEKLKDEEFMKWVNKVETVLNKMFEK

fold change in reporter activity over the highest negative control (Rev1): 4.15 fold
B4: Spo11 (natural protein, S. cerevisiae, UniProt P23179 1-398, looked up)
chain: MALEGLRKKYKTRQELVKALTPKRRSIHLNSNGHSNGTPCSNADVLAHIKHFLSLAANSLEQHQQPISIVFQNKKKKGDTSSPDIHTTLDFPLNGPHLCTHQFKLKRCAILLNLLKVVMEKLPLGKNTTVRDIFYSNVELFQRQANVVQWLDVIRFNFKLSPRKSLNIIPAQKGLVYSPFPIDIYDNILTCENEPKMQKQTIFPGKPCLIPFFQDDAVIKLGTTSMCNIVIVEKEAVFTKLVNNYHKLSTNTMLITGKGFPDFLTRLFLKKLEQYCSKLISDCSIFTDADPYGISIALNYTHSNERNAYICTMANYKGIRITQVLAQNNEVHNKSIQLLSLNQRDYSLAKNLIASLTANSWDIATSPLKNVIIECQREIFFQKKAEMNEIDARIFEYK
